Consider two molecules from patent US20190016816A1 (APTEVO RESEARCH AND DEVELOPMENT, published 2019).

For assay [1], the target named is T1, human 5T4 on cells (human, UniProt Q13641 32-420).
T1 construct: also called TPBG; hu5T4
T1 sequence: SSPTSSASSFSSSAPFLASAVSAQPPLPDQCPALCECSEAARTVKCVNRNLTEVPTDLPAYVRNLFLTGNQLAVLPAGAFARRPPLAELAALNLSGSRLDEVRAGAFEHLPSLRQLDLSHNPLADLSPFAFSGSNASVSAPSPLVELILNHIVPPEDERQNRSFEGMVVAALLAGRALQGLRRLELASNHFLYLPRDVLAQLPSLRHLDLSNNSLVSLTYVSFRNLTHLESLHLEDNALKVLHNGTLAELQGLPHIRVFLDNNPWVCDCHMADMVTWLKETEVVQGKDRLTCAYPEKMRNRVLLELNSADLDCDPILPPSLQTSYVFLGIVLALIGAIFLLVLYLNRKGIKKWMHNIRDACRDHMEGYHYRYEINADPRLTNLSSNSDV
The assay is described as follows: flow cytometry, TF-1 cells, PE goat anti-human Fc. On the procedure: A 3-fold titration of ALG.APV-210 construct (ranging from 100 nM to 0.14 nM) was incubated with the human 5T4-expressing cell lines for 40 minutes in FACS buffer at 4° C., washed 3 times, and detected with PE-labeled, goat-anti-human Fc secondary antibody (Jackson ImmunoResearch). Binding of ALG.APV-210 was detected by flow cytometry. All samples were run in duplicates. Nonlinear regression analysis to determine EC₅₀ values was performed in GraphPad Prism 6® graphing and statistics software.
Background: A flow cytometer gives signals particle by particle.

Assay [2] deals with T1, human 5T4 on cells. The assay can be described thus: flow cytometry, SKOV-3 cells, streptavidin-PE, normalized MFI of 2 pooled experiments. On the procedure:
Prior to the FACS staining, all cell lines were characterized for their 5T4 expression levels using a receptor density kit (Quantum Simply Cellular, anti-human IgG, Bangs Laboratories, Inc). Adherent cell lines were cultured according to their supplier's instructions and were harvested from their cell culture flasks using Trypsin/EDTA, counted in R10 medium in a Burker chamber, and diluted in FACS buffer (PBS+0.5% BSA, 0.05% NaN₃) to a concentration of 4×10⁶ cells/mL. 50 μL (0.20×10⁶) of cell solution was added to a 96-well FACS staining plate (Falcon #351190). Cells were incubated for 20 min in 4° C. with 50 μL of the biotinylated ALG.APV-210 (2× final concentration). The antibodies were added in a serial dilution starting at 20 μg/mL titrating down in a 12 step ½ dilution down to 0.010 μg/mL. Following 2× washing with FACS buffer, cells were incubated for 30 min in 4° C. with 100 μL of a secondary antibody (streptavidin-PE, BD #554061, diluted 1/500). […] Cells were analysed for ALG.APV-210 binding using flow cytometry (FACSVerse) by gating on single cells. MFI values (secondary antibody only subtracted) from 1 out of 2 independent experiments, as well as normalized data and EC₅₀-values of pooled data from 2 experiments were determined and plotted using GraphPad Prism 7, non-linear regression log (agonist) vs. normalized response—variable slope.

The target in assay [3] is T2, cynomolgus CD137 on cells (cynomolgus macaque, UniProt A9YYE7 24-254).
T2 construct: whole, on cells; also called CHO-K1/cynomolgus CD137 cell line; cynomolgus monkey CD137 on CD3-stimulated primary CD8 T cells
The assay can be described thus: flow cytometry, CD8 T cells gated from CD3-stimulated cynomolgus PBMC, biotinylated antibody + streptavidin-APC, exp 2, n=3 donors. On the procedure: (§1) Following 48 h of incubation with or without CD3, human and cynomolgus PBMC were harvested, pooled, recounted and diluted in FACS buffer (PBS+0.5% BSA, 0.05% NaN₃) to a concentration of 5×10⁶ cells/mL. 50 μL (0.25×10⁶ cells) of cell solution was added to a 96-well FACS staining plate (Falcon #351190). Following 10 min of Fc-blocking in RT using Beriglobin (hIgG, 200 μg/mL), cells were washed in FACS buffer and then incubated for 1 h in 4° C. with 100 μL of the biotinylated ALG.APV-210 or negative control. […] Cells were analysed for ALG.APV-210 binding using flow cytometry by gating on viable, single cells expressing CD3 and CD8. MFI values (FMO subtracted) from 2 independent experiments as well as normalized pooled data from 2 experiments and EC₅₀-values were determined and plotted using GraphPad Prism 7, non-linear regression log (agonist) vs. normalized response—variable slope, n=6 donors/group.
In ELISA tests, the binding of biotinylated ALG.APV-210 to CD137 was similar to that of the non-biotinylated ALG.APV-210 (0.6 nM vs. 0.7 nM). The binding (EC₅₀) of the biotinylated ALG.APV-210 to its immunomodulatory target CD137 when expressed on activated primary human and cynomolgus CD8 T cells from CD3 stimulated PBMC was assessed and compared between the two species as well as to unstimulated cells. […]

Assay [4] addresses T2, cynomolgus CD137 on cells. The assay can be described thus: flow cytometry, MFI of the CD137 positive cells; cynomolgus CD8 T cells, MFI of CD137 positive cells. On the procedure:
as §1
ALG.APV-210 binding was also assessed by looking at the percentage of CD8 T cells bound by ALG.APV-210. […] The binding EC₅₀ values were also calculated on the MFI of the CD137 positive cells, and the results was an EC₅₀ of 0.17 nM for binding to human CD137 and 0.20 nM for cynomolgus monkey CD137.

T2 sequence (A9YYE7 entry or part of it): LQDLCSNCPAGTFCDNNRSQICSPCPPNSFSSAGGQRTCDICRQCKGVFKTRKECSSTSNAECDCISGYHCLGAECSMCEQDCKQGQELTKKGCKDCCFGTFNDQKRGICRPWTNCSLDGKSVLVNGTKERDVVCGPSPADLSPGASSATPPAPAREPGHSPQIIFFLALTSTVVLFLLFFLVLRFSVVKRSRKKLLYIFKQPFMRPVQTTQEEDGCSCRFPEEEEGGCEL

B1: ALG.APV-210 (bispecific antibody)
chain: EVQLLESGGGLVQPGGSLRLSCAASGFTFSHGSMYWVRQAPGKGLEWVSSISSGSGSTYYADSVKGRFTISHDNSKNTLYLQMNSLRAEDTAVYYCARSSYYGSYYSIDYWGQGTLVTVSSGGGGSGGGGSGGGGSGGGGSDIQMTQSPSSLSASVGDRVTITCRASQSISSYLNWYQQKPGKAPKLLIYAASSLQSGVPSRFSGSGSGTDFTLTISSLQPEDFATYYCQQYYDNLPTFGQGTKLEIKEPKSSDKTHTCPPCPAPEAAGAPSVFLFPPKPKDTLMISRTPEVTCVVVDVSHEDPEVKFNWYVDGVEVHNAKTKPREEQYNSTYRVVSVLTVLHQDWLNGKEYKCAVSNKALPAPIEKTISKAKGQPREPQVYTLPPSRDELTKNQVSLTCLVKGFYPSDIAVEWESNGQPENNYKTTPPVLDSDGSFFLYSKLTVDKSRWQQGNVFSCSVMHEALHNHYTQKSLSLSPGSGGGGSGGGGSGGGGSPSEVQLLESGGGLVQPGGSLRLSCAASGFTFSSYAMSWVRQAPGKCLEWVSAISGSGGSTYYADSVKGRFTISRDNSKNTLYLQMNSLRAEDTAVYYCARYYGGYYSAWMDYWGQGTLVTVSSGGGGSGGGGSGGGGSGGGGSDIQMTQSPSSLSASVGDRVTITCRASQSISSFLNWYQQKPGKAPKLLIYAASSLQSGVPSRFSGSGSGTDFTLTISSLQPEDSATYYCQQTYGYLHTFGCGTKLEIKR
notes: Optimized ADAPTIR scFv-Fc-scFv homodimer with stabilizing disulfide in the 1210 scFv; also called 5T4-CD137 bispecific antibody
The term EC50 denotes the concentration at which the effect is half-maximal. In turn, B1 came in with a half-maximal effective concentration (EC50) with human 5T4 on cells [1] of 71 nM. That is a double-digit nanomolar value.

B2: biotinylated ALG.APV-210 (bispecific antibody)
chain: EVQLLESGGGLVQPGGSLRLSCAASGFTFSHGSMYWVRQAPGKGLEWVSSISSGSGSTYYADSVKGRFTISHDNSKNTLYLQMNSLRAEDTAVYYCARSSYYGSYYSIDYWGQGTLVTVSSGGGGSGGGGSGGGGSGGGGSDIQMTQSPSSLSASVGDRVTITCRASQSISSYLNWYQQKPGKAPKLLIYAASSLQSGVPSRFSGSGSGTDFTLTISSLQPEDFATYYCQQYYDNLPTFGQGTKLEIKEPKSSDKTHTCPPCPAPEAAGAPSVFLFPPKPKDTLMISRTPEVTCVVVDVSHEDPEVKFNWYVDGVEVHNAKTKPREEQYNSTYRVVSVLTVLHQDWLNGKEYKCAVSNKALPAPIEKTISKAKGQPREPQVYTLPPSRDELTKNQVSLTCLVKGFYPSDIAVEWESNGQPENNYKTTPPVLDSDGSFFLYSKLTVDKSRWQQGNVFSCSVMHEALHNHYTQKSLSLSPGSGGGGSGGGGSGGGGSPSEVQLLESGGGLVQPGGSLRLSCAASGFTFSSYAMSWVRQAPGKCLEWVSAISGSGGSTYYADSVKGRFTISRDNSKNTLYLQMNSLRAEDTAVYYCARYYGGYYSAWMDYWGQGTLVTVSSGGGGSGGGGSGGGGSGGGGSDIQMTQSPSSLSASVGDRVTITCRASQSISSFLNWYQQKPGKAPKLLIYAASSLQSGVPSRFSGSGSGTDFTLTISSLQPEDSATYYCQQTYGYLHTFGCGTKLEIKR
notes: also called ALG.APV-210 (biotinylated for FACS detection)
The term EC50 (read off the curve) denotes the concentration needed to bring the measured effect to its halfway point. In the case of B2, the EC50 with human 5T4 on cells [2] stood at 15 nM; in assay [4], 0.2 nM. Further, the “EC50 (read off the curve)” value in assay [3] was about 0.2 nM.
